Read-outs that look alike come from different tables or passages of the source.
Columns and labels:
[1] = biological target: T1, Human TIGIT expressed on the surface of cells (human, UniProt Q495A1 22-244); assay: cell-based or functional assay
T1 sequence: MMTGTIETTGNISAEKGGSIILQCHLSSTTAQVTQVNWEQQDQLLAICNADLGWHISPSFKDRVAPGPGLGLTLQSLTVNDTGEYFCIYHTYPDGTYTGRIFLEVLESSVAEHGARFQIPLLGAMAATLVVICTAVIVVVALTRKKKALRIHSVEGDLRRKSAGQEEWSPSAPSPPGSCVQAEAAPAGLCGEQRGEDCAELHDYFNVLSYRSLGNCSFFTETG

[2] = biological target: T1, Human TIGIT expressed on the surface of …; assay: cell-based or functional assay; remark: listed apart in the source
[3] = biological target: T1, Human TIGIT expressed on the surface of …; assay: flow cytometry on CHO cells overexpressing human TIGIT; reference antibody in the run with CHO-expressed antibodies
[4] = biological target: T1, Human TIGIT expressed on the surface of …; assay: flow cytometry on CHOS cells expressing human TIGIT; reference antibody
[5] = biological target: T1, Human TIGIT expressed on the surface of …; assay: flow cytometry competition against 50 nM human CD155-mouse IgG2a Fc on CHOS cells expressing human TIGIT; positive control
[6] = biological target: T2, Monkey TIGIT-his (ACRO, TIT-05223) (monkey); assay: BLI (ForteBio), antibody loaded on AHQ sensor, 100 nM TIGIT-his, 1:1 model, monovalent
T2 construct: Bought protein

[7] = biological target: T3, Human TIGIT-his (ACRO, TIT-H52H3) (human, UniProt Q495A1 22-141); assay: as above
T3 construct: Bought protein
T3 sequence: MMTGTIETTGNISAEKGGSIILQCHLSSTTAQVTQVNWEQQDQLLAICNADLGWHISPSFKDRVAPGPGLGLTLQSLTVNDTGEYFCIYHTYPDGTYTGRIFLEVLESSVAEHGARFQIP

[8] = biological target: T1, Human TIGIT expressed on the surface of …; assay: flow cytometry competition against 50 nM human CD155-mouse IgG2a Fc on CHOS cells expressing human TIGIT; positive control; remark: listed apart in the source

- EC50, MOA-based assay (luciferase reporter under IL2 promoter), positive control in the run with CHO-expressed antibodies [1]: 0.342 nM
- EC50, MOA-based assay (luciferase reporter under IL2 promoter) [2]: 0.838 nM
- EC50 [3]: 0.185 nM
- EC50 [4]: 0.436 nM
- IC50 [5]: 0.154 nM
- Kd [6]: 0.472 nM
- Kd [7]: 2.34 nM
- IC50 [8]: 0.166 nM
B1: 31C6 (anti-human TIGIT reference antibody from Merck) (antibody, V domains shown)
VH: EVQLVQSGAEVKKPGASVKVSCKASGYTFSSYVMHWVRQAPGQGLEWIGYIDPYNDGAKYAQKFQGRVTLTSDKSTSTVYMELSSLRSEDTAVYYCARGGPYGWYFDVWGQGTTVTVSS
VL: DIQMTQSPSSLSASVGDRVTITCRASEHIYSYLSWYQQKPGKAPKLLIYNAKTLAEGVPSRFSGSGSGTDFTLTISSLQPEDFATYYCQHHFGSPLTFGQGTRLEIK
